In patent US20200399712A1, “COMPOSITIONS AND METHODS FOR THE DIAGNOSIS AND DETECTION OF TUMORS AND CANCER PROGNOSIS” (priority 2018, published 2020):
“Also recorded” adds a separate entry of the source. Marks after values point to notes of the source that are not given here.

Key:
HPV DNA = assay: CLIA HPV test pilot study on saliva rinse samples from HPV-positive HNSCC patients and non-cancer controls; design: species or system HPV16; HPV16 DNA measured by CLIA HPV test: unit not given here
Method: As a final validation, Applicants a small pilot study was performed on a blinded set of saliva rinse samples from 28 patients with HPV-positive HNSCC and 15 salivary rinses from non-cancer controls. […] The sensitivity increased to 96% when all three sets were used (Table 3).

HPV16 DNA [1] = assay: CLIA test for HPV16, performance characteristics in salivary rinse
From the text: (§1) These primer/probe sets were adapted for development of a CLIA test for HPV16 DNA detection in plasma and salivary rinses (Table 2). Test performance was improved, so that analytical sensitivity in salivary rinse spike in assays ranges from 2.5-5.0 DNA copies/mL with 100% specificity for the three primer/probe sets that are now part of the component assay, resulting in a five-fold improvement in analytic sensitivity that is in the range of sensitivity found in sequence based liquid biopsy methods (FIG. 23, Table 2). Additionally, the assays can be used quantitatively, with measuring ranges between 2.0 log10-7.0 log10 copies/mL.

HPV-16 [2] = assay: qPCR sensitivity against HPV-HNSCC tumor samples diluted among 10 ng normal human DNA
Method: Quantitative real-time polymerase chain reaction (qRT-PCR) was used to examine the threshold in each experiment. qRT-PCR was performed using Quant Studio 6 Flex Real-Time PCR System (Thermo Fisher Scientific). All samples were run in triplicates. HPV-16 viral amplicon copy number estimations were developed using the CaSki cell line. After amplification of the amplicon by PCR, DNA concentration was calculated by weight NanoDrop®, then converted to DNA copy number by calculation based on the molecular weight of the double stranded amplicon. […] In the other 32 HPV-HNSCC cohort, Applicants diluted the tumor sample to 990 pg, 198 pg, 99 pg, 39.6 pg, 7.9 pg, 3.2 pg, and 1.6 pg of amount tumor weight, (correspond to 150, 30, 15, 6, 1.2, 0.6, and 0.3 cells: assumption that 1 tumor cell have 6.6 pg DNA (=3*10^9 (human DNA genome bp)*2 (diploid)*1.67*10^(−24) g (weight/Dalton))) combined with 10 ng normal leukocyte human DNA and compare the threshold of each primer-probe sets.
In this regard, Applicants investigated the other 32 HPV-HNSCC tumor samples. From the assumption that 1 cell tumor DNA contain 6.6 pg DNA, Applicants made the dilution series by DNA derived from normal lymphocyte as described and decide the threshold for each primer-probe set.
Furthermore, to determine whether these designed primer/probe sets also have a high sensitivity in a separate cohort, Applicants performed PCR in a validation cohort of 32 additional primary tumor samples with validated presence of HPV-16. Applicants prepared serial of dilutions of tumor DNA in normal lymphocyte DNA from non-cancer individuals and determined the threshold for each primer/probe set and defined amplification thresholds expressed in number of tumor cells for each sample (Table 5).

HPV-16 [3] = assay: qPCR on 20 ng DNA from saliva samples of HPV-HNSCC patients
Method: All samples were run in triplicates.
The sensitivity of detection from saliva 20 ng DNA samples is 32.1% (9/28) in E6 primer-probe sets, 42.9% (12/28) in E7 primer-probe sets, 35.7% (10/28) in “Min-5” primer-probe sets, 46.4% (13/28) in “Max-10” primer-probe sets. The sensitivity of combination of “5” and “10” is 50% (14/28) and that of E6 and E7 is 42.9% (12/28). By the standard curve analysis, the copy numbers that detected by “Max-10” primer-probe sets were the highest in these 4 primer-probe sets. The slope of standard curve is −3.5 in “Min-5” primer-probe sets when delta Rn is plotted against cycle threshold (FIG. 5).

HPV16 DNA [4] = assay: CLIA test for HPV16, performance characteristics in plasma
From the text: as §1

HPV-16 genome = assay: qPCR sensitivity against HPV-16 copy number (known-copy HPV-16 DNA among 10 ng normal human DNA); details: for reaction under 10 copies of HPV-16 genome / reaction under 30 copies of HPV-16 genome: among 10 ng normal DNA, triplicate qPCR
[5] = first template ('... HPV16', word is an image)
[6] = second template (name is an image)
[7] = tumor DNA dilution, fraction of 32 samples
[8] = samples tested 3 times, 10 ng DNA from healthy individual

B1: BR E1-5: HPV-16 E1 region primer/probe set, SEQ ID NO: 40-42 (same as SEQ ID NO: 1-3) (nucleic acid)
DNA 1: GCACAATTGGCAGACACTAAT
DNA 2: GCACAATCCTTTACAATTTTTGCC
DNA 3: AGTAATGCAAGTGCCTTTCTAAAAAGTAATTC
modifications: chemistry not given here
sensitivity for the detection of HPV DNA in saliva rinse samples (HPV DNA; 28 patients with HPV-positive HNSCC): 79%
HPV16 DNA measured by CLIA HPV test (HPV DNA; saliva sample from HPV-HNSCC patient # 1): 866000
HPV16 DNA measured by CLIA HPV test (HPV DNA; saliva sample from HPV-HNSCC patient # 2): 118000
HPV16 DNA measured by CLIA HPV test (HPV DNA; saliva sample from HPV-HNSCC patient # 3): 47600
HPV16 DNA measured by CLIA HPV test (HPV DNA; saliva sample from HPV-HNSCC patient # 4): 104000
HPV16 DNA measured by CLIA HPV test (HPV DNA; saliva sample from HPV-HNSCC patient # 7): 9790
HPV16 DNA measured by CLIA HPV test (HPV DNA; saliva sample from HPV-HNSCC patient # 8): 3590
HPV16 DNA measured by CLIA HPV test (HPV DNA; saliva sample from HPV-HNSCC patient # 9): 2600
HPV16 DNA measured by CLIA HPV test (HPV DNA; saliva sample from HPV-HNSCC patient # 12): 127
HPV16 DNA measured by CLIA HPV test (HPV DNA; saliva sample from HPV-HNSCC patient # 13): 290
HPV16 DNA measured by CLIA HPV test (HPV DNA; saliva sample from HPV-HNSCC patient # 14): 114
HPV16 DNA measured by CLIA HPV test (HPV DNA; saliva sample from HPV-HNSCC patient # 15): 160
HPV16 DNA measured by CLIA HPV test (HPV DNA; saliva sample from HPV-HNSCC patient # 16): 121
HPV16 DNA measured by CLIA HPV test (HPV DNA; saliva sample from HPV-HNSCC patient # 17): 67.4
HPV16 DNA measured by CLIA HPV test (HPV DNA; saliva sample from HPV-HNSCC patient # 18): 15.8
HPV16 DNA measured by CLIA HPV test (HPV DNA; saliva sample from HPV-HNSCC patient # 19): 61.1
HPV16 DNA measured by CLIA HPV test (HPV DNA; saliva sample from HPV-HNSCC patient # 20): 30.9
HPV16 DNA measured by CLIA HPV test (HPV DNA; saliva sample from HPV-HNSCC patient # 21): 25.7
HPV16 DNA measured by CLIA HPV test (HPV DNA; saliva sample from HPV-HNSCC patient # 22): 2.68
HPV16 DNA measured by CLIA HPV test (HPV DNA; saliva sample from HPV-HNSCC patient # 23): 1.82
HPV16 DNA measured by CLIA HPV test (HPV DNA; saliva sample from HPV-HNSCC patient # 24): 14.4
HPV16 DNA measured by CLIA HPV test (HPV DNA; saliva sample from HPV-HNSCC patient # 25): 2.76
HPV16 DNA measured by CLIA HPV test (HPV DNA; saliva sample from HPV-HNSCC patient # 27): 2.17
Measuring Range - Salivary Rinse (HPV16 DNA [1]; first template ('... HPV16')): 2.0-8.5 log10 log10 copies/mL
Limit of Detection - Salivary rinse (HPV16 DNA [1]; [5]): 3 copies/mL
Limit of Detection - Salivary rinse (HPV16 DNA [1]; [6]): 12 copies/mL
Measuring Range - Salivary Rinse (HPV16 DNA [1]; [6]): 2.0-6.5 log10 log10 copies/mL
sensitivity under 100 cells (HPV-16 [2]; 32 HPV-HNSCC tumor samples): 96.9%
sensitivity under single cells (HPV-16 [2]; 32 HPV-HNSCC tumor samples, 6.6 pg DNA): 28.1%
sensitivity under 10 cells (HPV-16 [2]; 32 HPV-HNSCC tumor samples, 66 pg DNA): 68.7%
Threshold of tumor cell numbers for HPV-16 detection (HPV-16 [2]; Sample # 1): 60.0 tumor cells
Threshold of tumor cell numbers for HPV-16 detection (HPV-16 [2]; Sample # 2): 150.0 tumor cells
Threshold of tumor cell numbers for HPV-16 detection (HPV-16 [2]; Sample # 3): 30.0 tumor cells
Threshold of tumor cell numbers for HPV-16 detection (HPV-16 [2]; Sample # 4): 6.0 tumor cells
Threshold of tumor cell numbers for HPV-16 detection (HPV-16 [2]; Sample # 5): 6.0 tumor cells
Threshold of tumor cell numbers for HPV-16 detection (HPV-16 [2]; Sample # 6): 15.0 tumor cells
Threshold of tumor cell numbers for HPV-16 detection (HPV-16 [2]; Sample # 7): 30.0 tumor cells
Threshold of tumor cell numbers for HPV-16 detection (HPV-16 [2]; Sample # 8): 30.0 tumor cells
Threshold of tumor cell numbers for HPV-16 detection (HPV-16 [2]; Sample # 9): 1.2 tumor cells
Threshold of tumor cell numbers for HPV-16 detection (HPV-16 [2]; Sample # 10): 6.0 tumor cells
Threshold of tumor cell numbers for HPV-16 detection (HPV-16 [2]; Sample # 11): 30.0 tumor cells
Threshold of tumor cell numbers for HPV-16 detection (HPV-16 [2]; Sample # 12): 30.0 tumor cells
Threshold of tumor cell numbers for HPV-16 detection (HPV-16 [2]; Sample # 13): 6.0 tumor cells
Threshold of tumor cell numbers for HPV-16 detection (HPV-16 [2]; Sample # 14): 6.0 tumor cells
Threshold of tumor cell numbers for HPV-16 detection (HPV-16 [2]; Sample # 15): 6.0 tumor cells
Threshold of tumor cell numbers for HPV-16 detection (HPV-16 [2]; Sample # 16): 6.0 tumor cells
Threshold of tumor cell numbers for HPV-16 detection (HPV-16 [2]; Sample # 17): 1.2 tumor cells
Threshold of tumor cell numbers for HPV-16 detection (HPV-16 [2]; Sample # 18): 0.2 tumor cells
Threshold of tumor cell numbers for HPV-16 detection (HPV-16 [2]; Sample # 19): 1.2 tumor cells
Threshold of tumor cell numbers for HPV-16 detection (HPV-16 [2]; Sample # 20): 3.0 tumor cells
Threshold of tumor cell numbers for HPV-16 detection (HPV-16 [2]; Sample # 21): 0.6 tumor cells
Threshold of tumor cell numbers for HPV-16 detection (HPV-16 [2]; Sample # 22): 0.3 tumor cells
Threshold of tumor cell numbers for HPV-16 detection (HPV-16 [2]; Sample # 23): 1.2 tumor cells
Threshold of tumor cell numbers for HPV-16 detection (HPV-16 [2]; Sample # 24): 0.6 tumor cells
Threshold of tumor cell numbers for HPV-16 detection (HPV-16 [2]; Sample # 25): 0.3 tumor cells
Threshold of tumor cell numbers for HPV-16 detection (HPV-16 [2]; Sample # 26): 0.6 tumor cells
Threshold of tumor cell numbers for HPV-16 detection (HPV-16 [2]; Sample # 27): 0.6 tumor cells
Threshold of tumor cell numbers for HPV-16 detection (HPV-16 [2]; Sample # 28): 0.6 tumor cells
Threshold of tumor cell numbers for HPV-16 detection (HPV-16 [2]; Sample # 29): 1.0 tumor cells
Threshold of tumor cell numbers for HPV-16 detection (HPV-16 [2]; Sample # 30): 15.0 tumor cells
Threshold of tumor cell numbers for HPV-16 detection (HPV-16 [2]; Sample # 31): 0.6 tumor cells
Threshold of tumor cell numbers for HPV-16 detection (HPV-16 [2]; Sample # 32): 15.0 tumor cells
Sensitivity, 1 cell (HPV-16 [2]; [7]): 0.281*
Sensitivity, 3 cells (HPV-16 [2]; [7]): 0.438
Sensitivity, 10 cells (HPV-16 [2]; [7]): 0.688
Sensitivity, 30 cells (HPV-16 [2]; [7]): 0.938*
Sensitivity, 100 cells (HPV-16 [2]; [7]): 0.969*
sensitivity of detection from saliva 20 ng DNA samples (HPV-16 [3]; 28 HPV-HNSCC saliva samples): 35.7%
slope of standard curve (delta Rn plotted against cycle threshold) (HPV-16 [3]; RT-PCR, 20 ng DNA from HPV-HNSCC saliva samples (FIG. 5)): −3.5
Accuracy - Plasma Blind Panel, Negative % Agreement (HPV16 DNA [4]): 100%
Accuracy - Plasma Blind Panel, Positive % Agreement (HPV16 DNA [4]): 100%
Accuracy - Plasma Blind Panel, Total % Agreement (HPV16 DNA [4]): 100%
Measuring Range - Plasma (HPV16 DNA [4]; first template ('... HPV16')): 2.0-8.5 log10 log10 copies/mL
Limit of Detection - Plasma (HPV16 DNA [4]; [5]): 1.5 copies/mL
Limit of Detection - Plasma (HPV16 DNA [4]; [6]): 22 copies/mL
Measuring Range - Plasma (HPV16 DNA [4]; [6]): 2.0-6.5 log10 log10 copies/mL
reaction under 10 copies of HPV-16 genome (HPV-16 genome): consistent detection
reaction under 30 copies of HPV-16 genome (HPV-16 genome): consistently amplified
reaction under 10 copies of HPV-16 genome (HPV-16 genome; listed as Min-5): consistently triplicate reaction; also recorded: could detect
reaction under 30 copies of HPV-16 genome (HPV-16 genome; listed as Min-5): react consistently
number of reactions against 10 HPV-16 copies (HPV-16 genome; [8]): 3 reactions
number of reactions under 30 HPV-16 copies (HPV-16 genome; [8]): 3 reactions
